Results taken from patent US20090175789A1 (LFB BIOTECHNOLOGIES, published 2009).

What was measured:
[1] = molecular target: T1, mouse LDL receptor (C2C12 cells) (mouse, UniProt P35951 22-862); assay: flow cytometry on C2C12 cells, antibody at 30 µg/mL
T1 construct: whole, on cells; also called murine LDL-R
Description: (§1) The cross-reactivity of the anti-LDL-R antibodies was tested in the mouse (C2C12 cells), in the rat (YB2/0 cells), and in the hamster (CHO-K1 cells). The anti-LDL-R 12G4 antibodies were incubated at a final concentration of 30 μg/mL for 3 hours at 4° C. on C2C12, CHO-K1, and YB2/0 cells that had been cultured beforehand under LPDS conditions for 24 hours. The commercial 1C6 (anti-SREBP2, IgG) and C7 (anti-LDL-R, IgG2b) antibodies were used as negative and positive control antibodies, respectively. The detection of the bond was performed using an anti-IgG-PE antibody. The results were expressed as the percentage of fluorescent cells (FIG. 6A) and as mean fluorescence (FIG. 6B).

[2] = molecular target: T2, hamster LDL receptor (CHO-K1 cells) (hamster, UniProt P35950 22-862); assay: flow cytometry on CHO-K1 cells, antibody at 30 µg/mL
T2 construct: whole, on cells
Description: as §1

[3] = molecular target: T3, rat LDL receptor (YB2/0 cells) (rat, UniProt P35952 22-879); assay: flow cytometry on YB2/0 cells, antibody at 30 µg/mL
T3 construct: whole, on cells
Description: as §1

T3 sequence (P35952 22-879): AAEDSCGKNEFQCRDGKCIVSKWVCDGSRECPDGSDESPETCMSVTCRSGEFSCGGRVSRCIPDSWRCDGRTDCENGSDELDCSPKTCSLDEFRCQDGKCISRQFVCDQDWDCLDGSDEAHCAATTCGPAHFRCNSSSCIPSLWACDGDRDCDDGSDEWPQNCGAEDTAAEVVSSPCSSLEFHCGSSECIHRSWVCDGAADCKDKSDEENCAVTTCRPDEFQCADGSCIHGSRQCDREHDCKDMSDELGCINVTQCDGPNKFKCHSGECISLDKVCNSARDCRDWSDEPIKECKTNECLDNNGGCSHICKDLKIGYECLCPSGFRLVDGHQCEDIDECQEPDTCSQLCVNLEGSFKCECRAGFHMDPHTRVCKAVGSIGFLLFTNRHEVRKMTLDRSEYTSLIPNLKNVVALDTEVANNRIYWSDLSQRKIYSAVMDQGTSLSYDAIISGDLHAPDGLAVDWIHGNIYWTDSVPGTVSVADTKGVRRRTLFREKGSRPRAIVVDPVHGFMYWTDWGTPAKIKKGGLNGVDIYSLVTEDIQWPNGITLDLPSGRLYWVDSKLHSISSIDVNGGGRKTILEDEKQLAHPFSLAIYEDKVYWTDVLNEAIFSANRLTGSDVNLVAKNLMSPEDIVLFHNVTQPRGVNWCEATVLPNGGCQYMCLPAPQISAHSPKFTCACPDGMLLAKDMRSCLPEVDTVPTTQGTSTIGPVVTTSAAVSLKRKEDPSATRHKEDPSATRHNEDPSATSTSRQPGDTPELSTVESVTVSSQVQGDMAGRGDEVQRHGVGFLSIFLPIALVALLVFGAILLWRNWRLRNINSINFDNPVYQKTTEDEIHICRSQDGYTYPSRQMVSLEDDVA
T2 sequence (P35950 22-862): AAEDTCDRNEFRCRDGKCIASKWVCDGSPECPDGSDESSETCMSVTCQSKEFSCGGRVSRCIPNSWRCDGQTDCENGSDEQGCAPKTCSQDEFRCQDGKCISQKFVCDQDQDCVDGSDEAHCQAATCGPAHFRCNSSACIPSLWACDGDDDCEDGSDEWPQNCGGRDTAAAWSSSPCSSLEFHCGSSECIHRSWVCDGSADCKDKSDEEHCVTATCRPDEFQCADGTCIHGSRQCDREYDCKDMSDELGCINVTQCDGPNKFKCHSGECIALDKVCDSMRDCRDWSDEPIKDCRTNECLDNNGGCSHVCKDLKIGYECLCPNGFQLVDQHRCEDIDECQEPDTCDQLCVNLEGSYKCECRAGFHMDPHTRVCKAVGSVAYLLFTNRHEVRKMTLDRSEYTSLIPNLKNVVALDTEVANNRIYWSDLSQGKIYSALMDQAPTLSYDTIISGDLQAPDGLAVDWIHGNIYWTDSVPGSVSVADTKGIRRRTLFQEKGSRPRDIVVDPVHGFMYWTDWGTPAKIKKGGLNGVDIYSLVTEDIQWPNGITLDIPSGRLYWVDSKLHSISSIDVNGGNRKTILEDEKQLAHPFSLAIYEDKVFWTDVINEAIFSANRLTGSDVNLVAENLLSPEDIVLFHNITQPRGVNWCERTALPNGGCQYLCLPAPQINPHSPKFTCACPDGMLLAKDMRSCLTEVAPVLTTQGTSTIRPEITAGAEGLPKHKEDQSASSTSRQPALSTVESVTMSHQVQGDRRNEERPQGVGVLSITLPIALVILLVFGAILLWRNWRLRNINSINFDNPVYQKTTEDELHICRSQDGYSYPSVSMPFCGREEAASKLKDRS
T1 sequence (P35951 22-862): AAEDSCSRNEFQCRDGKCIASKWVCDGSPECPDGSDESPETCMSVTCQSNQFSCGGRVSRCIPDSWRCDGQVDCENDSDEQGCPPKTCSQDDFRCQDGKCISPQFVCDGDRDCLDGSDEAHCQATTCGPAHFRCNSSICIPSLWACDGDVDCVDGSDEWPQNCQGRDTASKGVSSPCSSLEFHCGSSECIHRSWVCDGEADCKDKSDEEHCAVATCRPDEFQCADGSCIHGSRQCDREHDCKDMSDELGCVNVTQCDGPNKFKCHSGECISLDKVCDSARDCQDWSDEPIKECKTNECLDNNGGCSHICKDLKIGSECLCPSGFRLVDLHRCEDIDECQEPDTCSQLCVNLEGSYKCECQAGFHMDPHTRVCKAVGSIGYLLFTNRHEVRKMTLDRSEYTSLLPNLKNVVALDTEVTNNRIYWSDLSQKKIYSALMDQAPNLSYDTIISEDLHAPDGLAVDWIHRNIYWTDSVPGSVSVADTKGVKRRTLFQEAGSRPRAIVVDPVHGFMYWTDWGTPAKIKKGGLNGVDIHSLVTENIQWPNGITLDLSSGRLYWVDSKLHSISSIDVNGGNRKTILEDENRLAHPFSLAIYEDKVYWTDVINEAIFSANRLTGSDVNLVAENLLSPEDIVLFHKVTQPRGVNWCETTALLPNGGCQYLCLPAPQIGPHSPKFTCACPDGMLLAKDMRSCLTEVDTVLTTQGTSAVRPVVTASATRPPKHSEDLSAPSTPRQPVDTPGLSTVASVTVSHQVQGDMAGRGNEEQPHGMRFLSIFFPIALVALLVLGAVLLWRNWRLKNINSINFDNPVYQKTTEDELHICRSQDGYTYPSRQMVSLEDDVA

binding result [1]: binds | binding result [2]: binds | binding result [3]: binds
B1: anti-LDL-R 12G4 antibody (antibody, mouse IgG1, V domains shown)
VH: QIQLVQSGPELKKPGETVKISCKASGYTFTKYGMNWVKQAPGKGLKWMGWINTNTGEPTYAEEFKGRFAFSLETSASTAFLQINNLKNEDTATYFCSRGGYYDSYWGQGTLVTVSA
VL: DIVMSQSPSSLAVSVGEKVTMSCKSSQSLLYSSSQKNYLAWYQQKPGQSPKVLIYWASTRESGVPDRFTGSGSGTDFTLTISSVKAEDLAVYYCQQYYTYRTFGGGTKLEIK
notes: Murine IgG1 kappa purified from ascites of hybridoma H12G4; also called anti-LDL-R 12G4 antibodies; monoclonal antibody produced by the H12G4 hybridoma (CNCM I-3487)
